T1: ARG2 from CCM of LNCaP, A673 and A2780-Cis (Homo sapiens, UniProt P78540)
T1 construct: ARG2 is released into the CCM from LNCaP, A673 and A2780-Cis cell lines; endogenous in cells; host or cells: cell conditioned medium of cancer cell lines (LNCaP, A673, A2780-Cis and others)
T1 sequence (P78540 23-354): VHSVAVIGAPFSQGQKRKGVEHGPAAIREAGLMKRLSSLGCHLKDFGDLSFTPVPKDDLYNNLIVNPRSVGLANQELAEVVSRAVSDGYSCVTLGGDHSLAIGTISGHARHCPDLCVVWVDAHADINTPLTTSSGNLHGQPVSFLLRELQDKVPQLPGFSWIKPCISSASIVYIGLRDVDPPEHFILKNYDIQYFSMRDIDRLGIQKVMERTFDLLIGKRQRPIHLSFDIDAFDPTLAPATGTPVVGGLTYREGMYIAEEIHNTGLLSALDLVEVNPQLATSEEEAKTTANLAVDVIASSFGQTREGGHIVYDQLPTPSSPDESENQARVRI

T2: human ARG2 (Homo sapiens, UniProt P78540)
T2 construct: made in house
T2 sequence (P78540 with tags, fused parts or gaps): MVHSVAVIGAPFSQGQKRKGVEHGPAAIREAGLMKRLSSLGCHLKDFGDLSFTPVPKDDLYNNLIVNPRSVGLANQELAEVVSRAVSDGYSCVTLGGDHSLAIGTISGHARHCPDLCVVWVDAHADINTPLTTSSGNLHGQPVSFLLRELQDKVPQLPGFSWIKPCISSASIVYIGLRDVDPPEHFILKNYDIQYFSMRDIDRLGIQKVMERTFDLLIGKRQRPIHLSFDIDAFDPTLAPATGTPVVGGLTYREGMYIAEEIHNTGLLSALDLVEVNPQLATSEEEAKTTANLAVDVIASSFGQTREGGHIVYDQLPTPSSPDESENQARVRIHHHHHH


Experiments:
[1] = molecular target: T1, ARG2 from CCM of LNCaP, A673 and A2780-Cis; experiment: ELISA binding to ARG2 from CCM of cancer cell lines; settings: biotinylated IgG at 10 μg/ml as detection antibody, FIG. 18
Source text: In this experiment the presence of ARG2 in CCM samples was validated using commercial ARG2 ELISA kit (Cloud-Clone Corp., cat. SED796Hu). Additionally, the protocol was modified to include 1st generation IgG C0021061 and 2nd generation IgG C0021158 as detection antibodies to confirm binding of ARG2 IgG's to ARG2 expressed from cancer cell lines (FIG. 18).
The commercial kit is a 96-well plate pre-coated with anti-ARG2, which uses sandwich ELISA to quantify ARG2 in samples. Standards, biotinylated detection antibody, detection, substrate, and stop reagents are all provided in the kit. […] 100 μl of diluted CCM/media control was used for each well of kit and ELISA was performed following manufacturer's protocol. Each sample was run in duplicate. In parallel, CCM/media control samples were also included to test for binding of C0021061 and C0021158 to ARG2 in CCM samples. […] At the end of the assay, absorbance at 450 nm was read out on PheraStar (BMG). The absorbance values of standards were used to make standard curve and was used to interpolate ARG2 levels in CCM samples (where PAD detection antibody supplied with the kit was used). Similarly, absorbance reads from wells that received C0021061 and C0021158 were used to […] and 2nd generation ARG2 IgGs (C0021061 and C0021158 respectively) bind to ARG2 in CCM samples (FIG. 18).

human ARG2 = molecular target: T2, human ARG2; experiment: X-ray co-crystal structures of ARG2-Fab complexes, buried surface area of epitope residues; settings: total of interface residues
Description: The construct used for crystal trials was ARG2 (23-354) containing a C-terminal Gly3 linker and His10-tag (ARG2+C0020187, SEQ ID NO: 355: huARG2-His10) or a simple C-terminal His6-tag (ARG2+C0021181 and ARG2+C0021158, SEQ ID NO: 357: huARG2-His6). Crystals suitable for structure determination were obtained using the sitting drop methodology. For ARG2+C0020187, 0.2 μl of complex solution (2.0 mg/ml, ARG2:Fab=3:1, purified by gel filtration) were mixed with 0.1 μl of crystallisation solution containing 2 M (NH4)2SO4. Round, disc-shaped crystals (60×60×20 μm) appeared after 2 days. For ARG2+C0021181, 0.5 μl of complex solution (6.3 mg/ml) were mixed with 0.5 μl of a crystallisation solution containing 100 mM MMT (malic acid:MES:tris=1:2:2) pH 5.0, 20% glycerol, 10% PEG4000, 15 mM NaNO3, 15 mM Na2HPO4, 15 mM (NH4)2SO4. Hexagonal disc-shaped crystals (100×100×20 μm) appeared after 2 days and reached their final size after a week. For ARG2+C0021158, 0.25 μl of complex solution (7.0 mg/ml, containing 20% diluted microseeds of an ARG2+C0021181 crystal) were mixed with 0.25 μl of a crystallisation solution containing 2 M (NH4)2SO4. Crystals of irregular shape (60×60×60 μm) appeared after 2 days. For the ARG2+C0020187 and ARG2+C0021158 crystals, 3 M (NH4)2SO4 and 5% glycerol were added for cryo-protection, after which the crystals were cryo-cooled by plunging them into liquid N2. Data sets were collected at DLS, beamline i04-1 (ARG2+C0020187) or BESSY II, HZB, beamline MX-14-1 (ARG2+C0021181 and ARG2+C0021158). The crystals of ARG2+C0020187 diffracted up to 3.25 Å in space group P 65 2 2 with unit cell parameters a=b=138 Å, c=551 Å.
The structures were solved by molecular replacement using Phaser in the CCP4 program suite using the reported structure of ARG2 (PDB-ID 4HZE) and previously solved high-resolution structures of the individual Fabs in the molecular replacement search. For ARG2+C0020187 the asymmetric unit contained three copies each of ARG2 and the Fab, respectively, with the CL and CH domains being present in different orientations, one of pair which was poorly defined in the electron density. For ARG2+C0021181 and ARG2+C0021158 the asymmetric units contained one copy of ARG2 and one copy of the Fab, however for ARG2+C0021181 only the VL and VH domains of the Fab were well defined, with CL and CH domains most likely being present in two orientations (reflected by the increased B factor and overall worse electron density). Automated and manual refinement was then performed by alternating between using REFMAC5 (with twin- and TLS refinement turned on towards finalising the structures for ARG2+C0021181 and ARG2+C0021158) and COOT, respectively. […]

| binding to ARG2 from CCM of LNCaP, A673 and A2780-Cis (ELISA) [1] | % buried (human ARG2; C0021158 complex) [%] | ASA (solvent accessible surface area) (human ARG2; C0021158 complex) [Å^2] | BSA (buried surface area) (human ARG2; C0021158 complex) [Å^2] | % buried (human ARG2; C0021181 complex) [%] | Molecule |
| --- | --- | --- | --- | --- | --- |
| binding |  |  |  |  | C0021061: anti-ARG2 antibody, first generation lead, VH SEQ ID NO: 62, VL SEQ ID NO: 67 (antibody, listed as Homo sapiens, V domains shown, C0021061) VH: EVQLLESGGGLVQPGGSLRLSCAASGFTFSSYAMSWVRQAPGKGLEWVSAKPTDAGSTYYADSVKGRFTISRDNSKNTLYLQMNSLRAEDTAVYYCARLRADLGLYMDLWGRGTLVTVSS VL: QSVLTQPPSVSAAPGQKVTISCSGSSSNIGNHYVSWYQQLPGTAPKLLIYNTVYPKSGIPDRFSGSKSGTSATLGITGLQTGDEADYYCGTWDSSLSALVFGGGTKLTVL |
| binding | 50 | 2012.6 | 1000.3 |  | C0021158: anti-ARG2 antibody, second generation lead, VH SEQ ID NO: 272, VL SEQ ID NO: 277 (antibody, listed as Homo sapiens, V domains shown, C0021158) VH: EVQLLESGGGLVQPGGSLRLSCAASGFTFRYEVAAWVRQAPGKGLEWVSAISGPIPKGYYADSVKGRFTISRDNSKNTLYLQMNSLRAEDTAVYYCARLRADLGLYMDLWGRGTLVTVPS VL: QSVLTQPPSVSAAPGQKVTISCSGSSSNIGNHYVSWYQQLPGTAPKLLIYDNSERTAGVPDRFSGSKSGTSATLGITGLQTGDEADYYCGTWDELTSNLVFGGGTKLTVL |
|  |  |  |  | 50 | C0021181: anti-ARG2 antibody, VH SEQ ID NO: 342, VL SEQ ID NO: 347 (antibody, listed as Homo sapiens, V domains shown, C0021181) VH: EVQLLESGGGLVRPGGSLRLSCAASEFTFRYDYHVWVRQAPGKGLEWVSAISGSGGSTYYADSVKSRFTISRDNSKNTLYLQMNSLRAEDTAVYYCARLRADLGLYMDLWGRGTLVTVSS VL: QSVLTQPPSVSAAPGQKVAVSCSGSSSNIGSHYVSWYQQLPGTAPKLLIYDNSERTSGIPDRFSGSKSGTSATLGITGLQTGDEADYYCGTWDELTSNLVFGGGTRLTVL |

— US20220403048A1, “BINDING MOLECULES TO ARGINASE II [ARG2]” (Cancer Research Technology Limited, priority 2019, published 2022)
